PMC6220978, “Induced conformational changes activate the peptidoglycan synthase PBP1B” (Molecular Microbiology, 2018)
Changes are numbered by the printed parent chain.

What was measured:
Test in all cases: SPR; PBP1B versions immobilised to the chip surface; CpoB versions injected from either 3.9 nM to 2 μM or from 78 nM to 40 μM; apparent KD by non-linear regression, at least three independent experiments
Conditions in all cases: both partners purified
[1] = target: T1, PBP1B R109G (E. coli, UniProt P02919 46-844, R109G)
T1 construct: PBP1B, E. coli, residues 46-844, made by mutagenesis of pDML924; source: E. coli BL21(DE3), purified (membrane extract, HisTrap, thrombin, HiTrap SP ion exchange)
T1 sequence (looked up): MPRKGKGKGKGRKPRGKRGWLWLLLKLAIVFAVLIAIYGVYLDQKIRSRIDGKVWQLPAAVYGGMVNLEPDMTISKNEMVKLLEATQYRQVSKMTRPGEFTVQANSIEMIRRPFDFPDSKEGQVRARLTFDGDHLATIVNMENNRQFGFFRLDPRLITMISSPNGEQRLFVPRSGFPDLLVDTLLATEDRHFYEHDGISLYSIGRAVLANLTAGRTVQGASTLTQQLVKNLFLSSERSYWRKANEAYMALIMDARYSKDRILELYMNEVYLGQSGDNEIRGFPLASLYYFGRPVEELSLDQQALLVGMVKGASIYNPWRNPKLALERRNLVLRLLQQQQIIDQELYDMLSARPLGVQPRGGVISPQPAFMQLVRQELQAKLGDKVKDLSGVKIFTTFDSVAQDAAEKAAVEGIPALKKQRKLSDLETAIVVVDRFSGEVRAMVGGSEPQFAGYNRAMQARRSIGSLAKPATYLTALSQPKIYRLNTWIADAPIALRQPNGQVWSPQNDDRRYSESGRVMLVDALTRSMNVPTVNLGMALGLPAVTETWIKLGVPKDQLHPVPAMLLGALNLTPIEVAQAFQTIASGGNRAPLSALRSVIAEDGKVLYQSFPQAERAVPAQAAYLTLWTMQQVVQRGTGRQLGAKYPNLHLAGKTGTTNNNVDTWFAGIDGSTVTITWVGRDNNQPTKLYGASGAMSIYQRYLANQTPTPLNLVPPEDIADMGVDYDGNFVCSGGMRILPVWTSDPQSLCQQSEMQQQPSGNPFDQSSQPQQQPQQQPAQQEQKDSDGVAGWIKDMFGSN

[2] = target: T2, PBP1B N112G (E. coli, UniProt P02919 46-844, N112G)
T2 construct: PBP1B, E. coli, residues 46-844, made by mutagenesis of pDML924; source: E. coli BL21(DE3), purified (membrane extract, HisTrap, thrombin, HiTrap SP ion exchange)
T2 sequence (looked up): T1 sequence (looked up) with G64R, N67G

[3] = target: T3, PBP1B E341A (E. coli, UniProt P02919 46-844, E341A)
T3 construct: PBP1B, E. coli, residues 46-844, made by mutagenesis of pDML924; source: E. coli BL21(DE3), purified (membrane extract, HisTrap, thrombin, HiTrap SP ion exchange)
T3 sequence (looked up): T1 sequence (looked up) with G64R, E296A

B1: CpoB (full length) (natural protein, E. coli, UniProt P45955 27-263, looked up)
chain: QAPISSVGSGSVEDRVTQLERISNAHSQLLTQLQQQLSDNQSDIDSLRGQIQENQYQLNQVVERQKQILLQIDSLSSGGAAAQSTSGDQSGAAASTTPTADAGTANAGAPVKSGNANTDYNAAIALVQDKSRQDDAMVAFQNFIKNYPDSTYLPNANYWLGQLNYNKGKKDDAAYYFASVVKNYPKSPKAADAMFKVGVIMQDKGDTAKAKAVYQQVISKYPGTDGAKQAQKRLNAM
notes: CpoB, E. coli; The coiled-coil construct begins at residue 27, so the purified 'full length' protein may lack the signal peptide (surmise); source: E. coli BL21(DE3), purified (HisTrap, Superdex 200), as in Gray et al. 2015
Kd [1]: 70 nM | Kd [2]: 89 nM | Kd [3]: 77 nM
